The text below walks through data of the supplement of paper PMC7877785.

± gives the uncertainty stated by the source.

This data set is described as follows: self-splicing fitness, log relative to wild type (ln ratio); higher = more splicing; Tetrahymena group I intron in knt gene, E. coli kanamycin selection, DiMSum; sequences stand for … in CUCUCU…GGAGGGAAAAGUUAUCAGGCAUGCACCUGGUAGCUAGUCUUUAAACCAAUAGAUUGCAUCGGUUUAAAAGGCAAGACCGUCAAAUUGCGGGAAAGGGGUCAACAGCCGUUCAGUACCAAGUCUCAGGGGAAACUUUGAGAUGGCCUUGCAAAGGGUAUGGUAAUAAGCUGACGGACAUGGUCCUAACCACGCAGCCAAGUCCUAAGUCAACAGAUCUUCUGUUGAUAUGGAUGCAGUUCACAGACUAAAUGUCGGUCGGGGAAGAUGUAUUCUUCUCAUAAGAUAUAGUCGGACCUCUCCUUAAUGGGAGCUAGCGGAUGAAGUGAUGCAACACUGGAGCCGCUGGGAACUAAUUUGUAUGCGAAAGUAUAUUGAUUAGUUUUGGAGUACUCGUGGUCG
A digest of the protocol: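 DiMSum derived fitness as the error-weighted combination of fold changes across replicates, kanamycin versus no kanamycin, normalised to wild type. E. coli BL21(DE3) held the library, which randomised all eight P1ex-region intron nucleotides within the knt kanamycin-resistance gene on pET-22b(+). Six replicate transformations grew overnight at 37°C or 30°C on LB agar with or without 25 μg/mL kanamycin, also containing 100 μg/mL carbenicillin, 50 μM IPTG and 0.2% rhamnose, and pooled colonies were amplicon-sequenced on an Illumina HiSeq 2500.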

As to CCGCAGCAAUAUUACGGUGG, the “self-splicing fitness (ln)” value reads like this: (30 °C) -3.11 ± 0.12; (37 °C) -3.48 ± 0.2.
Taken in the same sequence, the figures for UGUGAGCAAUAUUACGCAAA were -3.07 ± 0.37 and -1.8 ± 0.25.
For the sequence GGGUAGCAAUAUUACGGAGC, the “self-splicing fitness (ln)” value reads like this: (30 °C) -1.42 ± 0.14; (37 °C) -0.425 ± 0.17.
Taken in the same sequence, the figures for AGUUAGCAAUAUUACGGCCU were -0.544 ± 0.11 and 0.22 ± 0.13.
As for AGCUAGCAAUAUUACGCACG, the “self-splicing fitness (ln)” value was -0.605 ± 0.16 (30 °C) and -0.0907 ± 0.18 (37 °C).
Take GUCGAGCAAUAUUACGCCCA: the “self-splicing fitness (ln)” value (37 °C) was -0.376 ± 0.33.
For UUUUAGCAAUAUUACGUUCA, the “self-splicing fitness (ln)” value runs as follows: (30 °C) -1.18 ± 0.21; (37 °C) -0.458 ± 0.22.
The matching figures for UAUAAGCAAUAUUACGCUUG: -1.75 ± 0.15 and -0.76 ± 0.14.
Taken in the same sequence, the figures for GGUUAGCAAUAUUACGCGCG were -0.271 ± 0.15 and 0.879 ± 0.15.
Taken in the same sequence, the figures for UAUGAGCAAUAUUACGGGAU were -3.06 ± 0.21 and -2.35 ± 0.29.
Regarding AUGCAGCAAUAUUACGUCAU, the “self-splicing fitness (ln)” value by setting is: (30 °C) -3.12 ± 0.14; (37 °C) -2.26 ± 0.12.
The matching figures for UUACAGCAAUAUUACGGGAA: -1.78 ± 0.086 and -0.461 ± 0.084.
The matching figures for UUAUAGCAAUAUUACGCAAU: -2.86 ± 0.3 and -0.556 ± 0.23.
Take GUAUAGCAAUAUUACGAAAA: the “self-splicing fitness (ln)” value (37 °C) was -1.18 ± 0.22.
For UGUUAGCAAUAUUACGGCGC, the “self-splicing fitness (ln)” value runs as follows: (30 °C) -2.65 ± 0.21; (37 °C) -2.22 ± 0.27.
Turning to AGAGAGCAAUAUUACGAGGA, the “self-splicing fitness (ln)” value by setting is: (30 °C) -2.71 ± 0.4; (37 °C) -2.21 ± 0.34.
Taken in the same sequence, the figures for CCGAAGCAAUAUUACGUUGA were -3.76 ± 0.15 and -3.45 ± 0.17.
In the case of GCUUAGCAAUAUUACGAGAU, the “self-splicing fitness (ln)” value (30 °C) was -1.36 ± 0.14 and the “self-splicing fitness (ln)” value (37 °C) is -1.02 ± 0.12.
The matching figures for AUCAAGCAAUAUUACGAACU: -0.00363 ± 0.11 and 0.0259 ± 0.11.
Taken in the same sequence, the figures for AAGUAGCAAUAUUACGGAGC were -3.21 ± 0.32 and -1.35 ± 0.23.
Consider UAUAAGCAAUAUUACGAAUC, for which the “self-splicing fitness (ln)” value (37 °C) was -1.77 ± 0.36.
For the sequence AAGGAGCAAUAUUACGUCCU, the “self-splicing fitness (ln)” value is -2.6 ± 0.25 (30 °C) and -2.27 ± 0.31 (37 °C).
The matching figures for UAAUAGCAAUAUUACGAACC: -3.22 ± 0.49 and -2.27 ± 0.39.
As for CAUAAGCAAUAUUACGCUUC, the “self-splicing fitness (ln)” value runs as follows: (30 °C) -2.57 ± 0.27; (37 °C) -2.19 ± 0.3.
Take GCUUAGCAAUAUUACGUGCG: the “self-splicing fitness (ln)” value is -1.23 ± 0.09 (30 °C) and -0.6 ± 0.12 (37 °C).
As for AGUUAGCAAUAUUACGACCA, the “self-splicing fitness (ln)” value reads like this: (30 °C) -0.921 ± 0.093; (37 °C) -0.258 ± 0.13.
For CGAGAGCAAUAUUACGGAAU, the “self-splicing fitness (ln)” value (30 °C) is -3.06 ± 0.19 and the “self-splicing fitness (ln)” value (37 °C) is -3.23 ± 0.42.
On to GAGCAGCAAUAUUACGUAAU, for which the “self-splicing fitness (ln)” value is -1.59 ± 0.063 (30 °C) and -0.994 ± 0.1 (37 °C).
As to UGCGAGCAAUAUUACGUAGC, the “self-splicing fitness (ln)” value runs as follows: (30 °C) -2.36 ± 0.27; (37 °C) -2.05 ± 0.38.
As for GGCCAGCAAUAUUACGGAGU, the “self-splicing fitness (ln)” value reads like this: (30 °C) -0.585 ± 0.063; (37 °C) -0.166 ± 0.084.
For the sequence UAGGAGCAAUAUUACGUUUU, the “self-splicing fitness (ln)” value reads like this: (30 °C) -1.88 ± 0.23; (37 °C) -1.89 ± 0.27.
The matching figures for ACGCAGCAAUAUUACGGAAC: -3.67 ± 0.2 and -1.78 ± 0.17.
As to UCUAAGCAAUAUUACGGCCU, the “self-splicing fitness (ln)” value (30 °C) is -3.76 ± 0.41.
Take UAUAAGCAAUAUUACGCAGG: the “self-splicing fitness (ln)” value reads like this: (30 °C) -2.31 ± 0.13; (37 °C) -0.616 ± 0.11.
UGUAAGCAAUAUUACGUCUA: the “self-splicing fitness (ln)” value is -0.00173 ± 0.09 (30 °C) and 0.151 ± 0.11 (37 °C).
Regarding AGCCAGCAAUAUUACGUAAA, the “self-splicing fitness (ln)” value reads like this: (30 °C) -3.03 ± 0.12; (37 °C) -1.55 ± 0.13.
Taken in the same sequence, the figures for GUUAAGCAAUAUUACGAAUC were -1.8 ± 0.29 and -0.464 ± 0.17.
Taken in the same sequence, the figures for AAAUAGCAAUAUUACGACAC were -1 ± 0.11 and 0.319 ± 0.12.
The matching figures for GAAUAGCAAUAUUACGGAUA: -2.36 ± 0.26 and -1.46 ± 0.21.
As to UGCUAGCAAUAUUACGAGGU, the “self-splicing fitness (ln)” value (30 °C) is -2.94 ± 0.27 and the “self-splicing fitness (ln)” value (37 °C) was -3.27 ± 0.39.
Taken in the same sequence, the figures for CGGCAGCAAUAUUACGCCCA were 0.189 ± 0.12 and -0.0939 ± 0.14.
Taken in the same sequence, the figures for GGAAAGCAAUAUUACGUUUC were -3.04 ± 0.21 and -2.5 ± 0.28.
As for CAUCAGCAAUAUUACGAAUG, the “self-splicing fitness (ln)” value was -3.18 ± 0.16 (30 °C) and -2.05 ± 0.14 (37 °C).
As to GGAAAGCAAUAUUACGUCGU, the “self-splicing fitness (ln)” value runs as follows: (30 °C) -0.732 ± 0.093; (37 °C) -0.254 ± 0.12.
On to UAGUAGCAAUAUUACGAAGC, for which, under “37 °C”, the “self-splicing fitness (ln)” value is -1.73 ± 0.45.
Regarding GCCCAGCAAUAUUACGGCUG, the “self-splicing fitness (ln)” value is -4.14 ± 0.2 (30 °C) and -2.22 ± 0.15 (37 °C).
As for UGCGAGCAAUAUUACGUCGG, the “self-splicing fitness (ln)” value (37 °C) is -1.91 ± 0.26.
With ACAGAGCAAUAUUACGCUGU, the “self-splicing fitness (ln)” value is, setting by setting: (30 °C) -3.87 ± 0.42; (37 °C) -2.69 ± 0.29.
As for UAGGAGCAAUAUUACGAUGU, the “self-splicing fitness (ln)” value (37 °C) was -1.79 ± 0.4.
For AAGGAGCAAUAUUACGGGCC, the “self-splicing fitness (ln)” value reads like this: (30 °C) -2.98 ± 0.37; (37 °C) -2.27 ± 0.45.
Take CCAAAGCAAUAUUACGGGGA: the “self-splicing fitness (ln)” value is -3.41 ± 0.16 (30 °C) and -2.93 ± 0.17 (37 °C).
The matching figures for UAAGAGCAAUAUUACGGUGG: -4.17 ± 0.33 and -2.36 ± 0.26.
In the case of GUUUAGCAAUAUUACGGGUA, the “self-splicing fitness (ln)” value is -3 ± 0.24 (30 °C) and -1.61 ± 0.17 (37 °C).
UAAGAGCAAUAUUACGAAAG: the “self-splicing fitness (ln)” value is, setting by setting: (30 °C) -3.88 ± 0.31; (37 °C) -1.92 ± 0.23.
Taken in the same sequence, the figures for AUUUAGCAAUAUUACGCUUU were -2.7 ± 0.16 and -1.2 ± 0.11.
The matching figures for GCCAAGCAAUAUUACGGACG: -1.6 ± 0.14 and 0.0859 ± 0.18.
Taken in the same sequence, the figures for CUUAAGCAAUAUUACGCGUC were -2.08 ± 0.12 and -3.25 ± 0.23.
For GCCUAGCAAUAUUACGCCCC, the “self-splicing fitness (ln)” value is -0.575 ± 0.27 (30 °C) and 0.517 ± 0.49 (37 °C).
Taken in the same sequence, the figures for ACCUAGCAAUAUUACGAGCC were -2.81 ± 0.19 and -2.37 ± 0.3.
The matching figures for CACAAGCAAUAUUACGGGCG: -0.358 ± 0.06 and 0.319 ± 0.07.
The matching figures for AGGCAGCAAUAUUACGUGAA: -1.12 ± 0.07 and -0.932 ± 0.11.
Regarding AUGGAGCAAUAUUACGGUGC, the “self-splicing fitness (ln)” value (30 °C) was -2.99 ± 0.25.
